Results taken from US20230192789A1, “STRUCTURALLY-STABILIZED AND HDMX-SELECTIVE P53 PEPTIDES AND USES THEREOF” (Dana-Farber Cancer Institute, Inc., priority 2020, published 2023).
Bridges are numbered along the chain shown (N, C = ends). Where no end group is shown, it is not given here. [ ]: non-standard residue; d: D form. The star is where a group is joined. Biotin = O=C1N[C@H]2[C@H](CS[C@H]2CCCCC(=O)*)N1; R8 = C=CCCCCCC[C@@](C)(N)C(=O)O; Cba = N[C@@H](CC1CCC1)C(=O)O; S5 = C=CCCC[C@](C)(N)C(=O)O

Target: T1, recombinant HDMX (amino acids 1-490 of SEQ ID NO:104) (Homo sapiens, UniProt O15151)
T1 construct: thioredoxin (N, cleaved yes); S tag (N, cleaved yes); hexahistidine (N, cleaved yes); made in house; host or cells: E. coli (inferred: pET32-LIC vector, handled as described for HDM2 in BL21(DE3))
T1 sequence (O15151 1-490): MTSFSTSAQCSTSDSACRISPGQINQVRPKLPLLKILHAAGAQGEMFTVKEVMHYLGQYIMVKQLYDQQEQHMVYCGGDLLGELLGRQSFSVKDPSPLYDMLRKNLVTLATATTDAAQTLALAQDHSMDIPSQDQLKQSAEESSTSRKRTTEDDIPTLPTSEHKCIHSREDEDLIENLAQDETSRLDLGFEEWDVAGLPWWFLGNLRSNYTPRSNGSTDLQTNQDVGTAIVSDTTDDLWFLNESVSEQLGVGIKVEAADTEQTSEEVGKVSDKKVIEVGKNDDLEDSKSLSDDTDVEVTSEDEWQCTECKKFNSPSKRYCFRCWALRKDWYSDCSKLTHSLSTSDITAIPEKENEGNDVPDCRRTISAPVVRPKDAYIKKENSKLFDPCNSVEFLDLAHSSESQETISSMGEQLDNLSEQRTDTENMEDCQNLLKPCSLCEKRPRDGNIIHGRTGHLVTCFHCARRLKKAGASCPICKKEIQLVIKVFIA
Assay: Competitive streptavidin pull-down of biotinylated peptides with 1:1 recombinant HDM2/HDMX mixture, HDMX western
Assay type: binding
Details: biotinylated stapled peptide, 1:1 mixture of recombinant HDM2 and HDMX

Substance	HDMX versus HDM2 binding selectivity	further results
ATSP-7041 B26C (Biotin-LTF[R8]EYWAQC[S5]SAA-NH2; staple 4-11; SMILES CC(C)C[C@H](NC(=O)CCCC[C@@H]1SC[C@@H]2NC(=O)N[C@@H]21)C(=O)N[C@H](C(=O)N[C@@H](Cc1ccccc1)C(=O)N[C@]1(C)CCCCCCC=CCCC[C@@](C)(C(=O)N[C@@H](CO)C(=O)N[C@@H](C)C(=O)N[C@@H](C)C(N)=O)NC(=O)[C@H](CS)NC(=O)[C@H](CCC(N)=O)NC(=O)[C@H](C)NC(=O)[C@H](Cc2c[nH]c3ccccc23)NC(=O)[C@H](Cc2ccc(O)cc2)NC(=O)[C@H](CCC(=O)O)NC1=O)[C@@H](C)O)	HDMX selectivity over HDM2	–
ATSP-7041 B26D (Biotin-LTF[R8]EYWAQD[S5]SAA-NH2; staple 4-11; SMILES CC(C)C[C@H](NC(=O)CCCC[C@@H]1SC[C@@H]2NC(=O)N[C@@H]21)C(=O)N[C@H](C(=O)N[C@@H](Cc1ccccc1)C(=O)N[C@]1(C)CCCCCCC=CCCC[C@@](C)(C(=O)N[C@@H](CO)C(=O)N[C@@H](C)C(=O)N[C@@H](C)C(N)=O)NC(=O)[C@H](CC(=O)O)NC(=O)[C@H](CCC(N)=O)NC(=O)[C@H](C)NC(=O)[C@H](Cc2c[nH]c3ccccc23)NC(=O)[C@H](Cc2ccc(O)cc2)NC(=O)[C@H](CCC(=O)O)NC1=O)[C@@H](C)O)	HDMX selectivity over HDM2	–
ATSP-7041 B26G (Biotin-LTF[R8]EYWAQG[S5]SAA-NH2; staple 4-11; SMILES CC(C)C[C@H](NC(=O)CCCC[C@@H]1SC[C@@H]2NC(=O)N[C@@H]21)C(=O)N[C@H](C(=O)N[C@@H](Cc1ccccc1)C(=O)N[C@]1(C)CCCCCCC=CCCC[C@@](C)(C(=O)N[C@@H](CO)C(=O)N[C@@H](C)C(=O)N[C@@H](C)C(N)=O)NC(=O)CNC(=O)[C@H](CCC(N)=O)NC(=O)[C@H](C)NC(=O)[C@H](Cc2c[nH]c3ccccc23)NC(=O)[C@H](Cc2ccc(O)cc2)NC(=O)[C@H](CCC(=O)O)NC1=O)[C@@H](C)O)	HDMX selectivity over HDM2	HDMX versus HDM2 binding selectivity (listed as SEQ ID NO:61): selectivity to HDMX
ATSP-7041 B26K (Biotin-LTF[R8]EYWAQK[S5]SAA-NH2; staple 4-11; SMILES CC(C)C[C@H](NC(=O)CCCC[C@@H]1SC[C@@H]2NC(=O)N[C@@H]21)C(=O)N[C@H](C(=O)N[C@@H](Cc1ccccc1)C(=O)N[C@]1(C)CCCCCCC=CCCC[C@@](C)(C(=O)N[C@@H](CO)C(=O)N[C@@H](C)C(=O)N[C@@H](C)C(N)=O)NC(=O)[C@H](CCCCN)NC(=O)[C@H](CCC(N)=O)NC(=O)[C@H](C)NC(=O)[C@H](Cc2c[nH]c3ccccc23)NC(=O)[C@H](Cc2ccc(O)cc2)NC(=O)[C@H](CCC(=O)O)NC1=O)[C@@H](C)O)	HDMX selectivity over HDM2	HDMX versus HDM2 binding selectivity (listed as SEQ ID NO:64): selectivity to HDMX
ATSP-7041 B26N (Biotin-LTF[R8]EYWAQN[S5]SAA-NH2; staple 4-11; SMILES CC(C)C[C@H](NC(=O)CCCC[C@@H]1SC[C@@H]2NC(=O)N[C@@H]21)C(=O)N[C@H](C(=O)N[C@@H](Cc1ccccc1)C(=O)N[C@]1(C)CCCCCCC=CCCC[C@@](C)(C(=O)N[C@@H](CO)C(=O)N[C@@H](C)C(=O)N[C@@H](C)C(N)=O)NC(=O)[C@H](CC(N)=O)NC(=O)[C@H](CCC(N)=O)NC(=O)[C@H](C)NC(=O)[C@H](Cc2c[nH]c3ccccc23)NC(=O)[C@H](Cc2ccc(O)cc2)NC(=O)[C@H](CCC(=O)O)NC1=O)[C@@H](C)O)	HDMX selectivity over HDM2	–
ATSP-7041 B26P (Biotin-LTF[R8]EYWAQP[S5]SAA-NH2; staple 4-11; SMILES CC(C)C[C@H](NC(=O)CCCC[C@@H]1SC[C@@H]2NC(=O)N[C@@H]21)C(=O)N[C@H](C(=O)N[C@@H](Cc1ccccc1)C(=O)N[C@]1(C)CCCCCCC=CCCC[C@@](C)(C(=O)N[C@@H](CO)C(=O)N[C@@H](C)C(=O)N[C@@H](C)C(N)=O)NC(=O)[C@@H]2CCCN2C(=O)[C@H](CCC(N)=O)NC(=O)[C@H](C)NC(=O)[C@H](Cc2c[nH]c3ccccc23)NC(=O)[C@H](Cc2ccc(O)cc2)NC(=O)[C@H](CCC(=O)O)NC1=O)[C@@H](C)O)	HDMX selectivity over HDM2	–
ATSP-7041 B26Q (Biotin-LTF[R8]EYWAQQ[S5]SAA-NH2; staple 4-11; SMILES CC(C)C[C@H](NC(=O)CCCC[C@@H]1SC[C@@H]2NC(=O)N[C@@H]21)C(=O)N[C@H](C(=O)N[C@@H](Cc1ccccc1)C(=O)N[C@]1(C)CCCCCCC=CCCC[C@@](C)(C(=O)N[C@@H](CO)C(=O)N[C@@H](C)C(=O)N[C@@H](C)C(N)=O)NC(=O)[C@H](CCC(N)=O)NC(=O)[C@H](CCC(N)=O)NC(=O)[C@H](C)NC(=O)[C@H](Cc2c[nH]c3ccccc23)NC(=O)[C@H](Cc2ccc(O)cc2)NC(=O)[C@H](CCC(=O)O)NC1=O)[C@@H](C)O)	HDMX selectivity over HDM2	–
ATSP-7041 B26S (Biotin-LTF[R8]EYWAQS[S5]SAA-NH2; staple 4-11; SMILES CC(C)C[C@H](NC(=O)CCCC[C@@H]1SC[C@@H]2NC(=O)N[C@@H]21)C(=O)N[C@H](C(=O)N[C@@H](Cc1ccccc1)C(=O)N[C@]1(C)CCCCCCC=CCCC[C@@](C)(C(=O)N[C@@H](CO)C(=O)N[C@@H](C)C(=O)N[C@@H](C)C(N)=O)NC(=O)[C@H](CO)NC(=O)[C@H](CCC(N)=O)NC(=O)[C@H](C)NC(=O)[C@H](Cc2c[nH]c3ccccc23)NC(=O)[C@H](Cc2ccc(O)cc2)NC(=O)[C@H](CCC(=O)O)NC1=O)[C@@H](C)O)	HDMX selectivity over HDM2	–
ATSP-7041 B26T (Biotin-LTF[R8]EYWAQT[S5]SAA-NH2; staple 4-11; SMILES CC(C)C[C@H](NC(=O)CCCC[C@@H]1SC[C@@H]2NC(=O)N[C@@H]21)C(=O)N[C@H](C(=O)N[C@@H](Cc1ccccc1)C(=O)N[C@]1(C)CCCCCCC=CCCC[C@@](C)(C(=O)N[C@@H](CO)C(=O)N[C@@H](C)C(=O)N[C@@H](C)C(N)=O)NC(=O)[C@H]([C@@H](C)O)NC(=O)[C@H](CCC(N)=O)NC(=O)[C@H](C)NC(=O)[C@H](Cc2c[nH]c3ccccc23)NC(=O)[C@H](Cc2ccc(O)cc2)NC(=O)[C@H](CCC(=O)O)NC1=O)[C@@H](C)O)	HDMX selectivity over HDM2	–
ATSP-7041 B26V (Biotin-LTF[R8]EYWAQV[S5]SAA-NH2; staple 4-11; SMILES CC(C)C[C@H](NC(=O)CCCC[C@@H]1SC[C@@H]2NC(=O)N[C@@H]21)C(=O)N[C@H](C(=O)N[C@@H](Cc1ccccc1)C(=O)N[C@]1(C)CCCCCCC=CCCC[C@@](C)(C(=O)N[C@@H](CO)C(=O)N[C@@H](C)C(=O)N[C@@H](C)C(N)=O)NC(=O)[C@H](C(C)C)NC(=O)[C@H](CCC(N)=O)NC(=O)[C@H](C)NC(=O)[C@H](Cc2c[nH]c3ccccc23)NC(=O)[C@H](Cc2ccc(O)cc2)NC(=O)[C@H](CCC(=O)O)NC1=O)[C@@H](C)O)	HDMX selectivity over HDM2	–
ATSP-7041 B26W (Biotin-LTF[R8]EYWAQW[S5]SAA-NH2; staple 4-11; SMILES CC(C)C[C@H](NC(=O)CCCC[C@@H]1SC[C@@H]2NC(=O)N[C@@H]21)C(=O)N[C@H](C(=O)N[C@@H](Cc1ccccc1)C(=O)N[C@]1(C)CCCCCCC=CCCC[C@@](C)(C(=O)N[C@@H](CO)C(=O)N[C@@H](C)C(=O)N[C@@H](C)C(N)=O)NC(=O)[C@H](Cc2c[nH]c3ccccc23)NC(=O)[C@H](CCC(N)=O)NC(=O)[C@H](C)NC(=O)[C@H](Cc2c[nH]c3ccccc23)NC(=O)[C@H](Cc2ccc(O)cc2)NC(=O)[C@H](CCC(=O)O)NC1=O)[C@@H](C)O)	HDMX selectivity over HDM2	–
ATSP-7041 B26Y (Biotin-LTF[R8]EYWAQY[S5]SAA-NH2; staple 4-11; SMILES CC(C)C[C@H](NC(=O)CCCC[C@@H]1SC[C@@H]2NC(=O)N[C@@H]21)C(=O)N[C@H](C(=O)N[C@@H](Cc1ccccc1)C(=O)N[C@]1(C)CCCCCCC=CCCC[C@@](C)(C(=O)N[C@@H](CO)C(=O)N[C@@H](C)C(=O)N[C@@H](C)C(N)=O)NC(=O)[C@H](Cc2ccc(O)cc2)NC(=O)[C@H](CCC(N)=O)NC(=O)[C@H](C)NC(=O)[C@H](Cc2c[nH]c3ccccc23)NC(=O)[C@H](Cc2ccc(O)cc2)NC(=O)[C@H](CCC(=O)O)NC1=O)[C@@H](C)O)	HDMX selectivity over HDM2	–
LTF8EYWAQBXAAA (Biotin-LTF[R8]EYWAQ[Cba][S5]AAA-NH2; staple 4-11) [ATSP-7041 S28A]	restored dual HDM2/HDMX binding selectivity	HDMX versus HDM2 binding selectivity (listed as SEQ ID NO:79): dual-selectivity to HDMX and HDM2
LTF8EYWAQBXSAA [ATSP-7041, reference compound]	dual-HDM2/HDMX targeting	–
LTF8EYWEQBXEAA (LTF[R8]EYWEQ[Cba][S5]EAA-NH2; staple 4-11; not fully specified (N-terminus); printed as LTF8EYWEQBXEAA) [ATSP-7041 A24E/S28E]	restored dual HDM2/HDMX binding selectivity	HDMX versus HDM2 binding selectivity (listed as SEQ ID NO:81): dual-selectivity to HDMX and HDM2
